Results on two variants are retold here after article PMC3184960.

To fix the notation:
B1: c-Myc-tagged wild-type XAP2 [human] / ERα, transfected in HeLa cells [not stated] (parent)
chain 1: MADIIARLREDGIQKRVIQEGRGELPDFQDGTKATFHYRTLHSDDEGTVLDDSRARGKPMELIIGKKFKLPVWETIVCTMREGEIAQFLCDIKHVVLYPLVAKSLRNIAVGKDPLEGQRHCCGVAQMREHSSLGHADLDALQQNPQPLIFHMEMLKVESPGTYQQDPWAMTDEEKAKAVPLIHQEGNRLYREGHVKEAAAKYYDAIACLKNLQMKEQPGSPEWIQLDQQITPLLLNYCQCKLVVEEYYEVLDHCSSILNKYDDNVKAYFKRGKAHAAVWNAQEAQADFAKVLELDPALAPVVSRELRALEARIRQKDEEDKARFRGIFSH
chain 2: MTMTLHTKASGMALLHQIQGNELEPLNRPQLKIPLERPLGEVYLDSSKPAVYNYPEGAAYEFNAAAAANAQVYGQTGLPYGPGSEAAAFGSNGLGGFPPLNSVSPSPLMLLHPPPQLSPFLQPHGQQVPYYLENEPSGYTVREAGPPAFYRPNSDNRRQGGRERLASTNDKGSMAMESAKETRYCAVCNDYASGYHYGVWSCEGCKAFFKRSIQGHNDYMCPATNQCTIDKNRRKSCQACRLRKCYEVGMMKGGIRKDRRGGRMLKHKRQRDDGEGRGEVGSAGDMRAANLWPSPLMIKRSKKNSLALSLTADQMVSALLDAEPPILYSEYDPTRPFSEASMMGLLTNLADRELVHMINWAKRVPGFVDLTLHDQVHLLECAWLEILMIGLVWRSMEHPGKLLFAPNLLLDRNQGKCVEGMVEIFDMLLATSSRFRMMNLQGEEFVCLKSIILLNSGVYTFLSSTLKSLEEKDHIHRVLDKITDTLIHLMAKAGLTLQQQHQRLAQLLLILSHIRHMSNKGMEHLYSMKCKNVVPLYDLLLEMLDAHRLHAPTSRGGASVEETDQSHLATAGSTSSHSLQKYYITGEAEGFPATV

The variants in this experiment derive from B1. The experiment in a line: co-immunoprecipitation (IP with ERα antibody, Western blot with c-Myc antibody, band densitometry). As to conditions: 24 h after transfection. For orientation: In western blotting, separated proteins are transferred to a membrane and probed.
Setting [1] is: 10 nM E2 for 1 h, parent: 1, read off a plot.
Setting [2] is: DMSO (veh) for 1 h, parent: 0.9, read off a plot.

chain 1 MADIIARLREDGIQKRVIQEGRGELPDFQDGTKATFHYRTLHSDDEGTVLDDSRARGKPMELIIGKKFKLPVWETIVCTMREGEIAQFLCDIKHVVLYPLVAKSLRNIAVGKDPLEGQRHCCGVAQMREHSSLGHADLDALQQNPQPLIFHMEMLKVESPGTYQQDPWAMTDEEKAKAVPLIHQEGNRLYREGHVKEAAAKYYDAIACLKNLQMKEQPGSPEWIQLDQQITPLLLNYCQCKLVVEEYYEVLDHCSSILNKYDDNVKAYFKWGKAHAAVWNAQEAQADFAKVLELDPALAPVVSRELRALEARIRQKDEEDKARFRGIFSH [chain 1 R271W]: the ratio to parent by setting is: under setting [1], 0.68; under setting [2], 0.85.
In the same order, the values of chain 1 MADIIARLREDGIQKRVIQEGRGELPDFQDGTKATFHYRTLHSDDEGTMLDDSRARGKPMELIIGKKFKLPVWETIVCTMREGEIAQFLCDIKHVVLYPLVAKSLRNIAVGKDPLEGQRHCCGVAQMREHSSLGHADLDALQQNPQPLIFHMEMLKVESPGTYQQDPWAMTDEEKAKAVPLIHQEGNRLYREGHVKEAAAKYYDAIACLKNLQMKEQPGSPEWIQLDQQITPLLLNYCQCKLVVEEYYEVLDHCSSILNKYDDNVKAYFKRGKAHAAVWNAQEAQADFAKVLELDPALAPVVSRELRALEARIRQKDEEDKARFRGIFSH [chain 1 V49M] are 0.97 and 0.85.
